The results in this text go back to PMC3713010, “Sox2 Transcriptionally Regulates Pqbp1, an Intellectual Disability-Microcephaly Causative Gene, in Neural Stem Progenitor Cells”.

What all share (test): EMSA; 10% glycerol, 20 mM HEPES pH 7.8, 45 mM KCl, 10 mM NaCl, 1 mM EDTA, 1 mM DTT, 0.2 ug/uL BSA, 0.1% NP-40, 50 ng poly-dIdC; 20 ng each GST protein; room temperature 30 min (heterodimers 4 C); 6% PAGE 0.25x TBE
Holding throughout (conditions): protein: recombinant; tags: GST (N-terminal, pGEX-6P-1); label: 32P-dCTP fill-in of the 5' (dG)5 overhangs of both strands (Methods; control probes are given with GGG)

For series [1], the target named is T1, Brn2 DNA-binding domain (BD-Brn2) (Mus musculus (B6), UniProt P31360 336-435).
T1 sequence: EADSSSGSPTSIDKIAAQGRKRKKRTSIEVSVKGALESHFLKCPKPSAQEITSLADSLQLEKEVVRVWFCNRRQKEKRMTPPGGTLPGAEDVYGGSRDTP
The gist of the method: (§1)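 DNA binding of transcription factor DNA-binding domains to candidate cis-elements was read from band radioactivity in the expected shift region. The GST-tagged domains came from E. coli BL21 via glutathione-sepharose; probes were annealed oligonucleotides labelled with 32P-dCTP. Each assay used 20 ng protein, 40,000–50,000 cpm probe and 50 ng poly-dIdC for 30 min at room temperature, followed by 6% polyacrylamide electrophoresis in 0.25×TBE at 4°C.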

The target in series [2] is Pax6 DNA-binding domain (BD-Pax6) (Mus musculus (B6), UniProt P63015 190-289). The gist of the method:
as §1

The target in series [3] is T2, Oct6 DNA-binding domain (BD-Oct6) (Mus musculus (B6), UniProt P21952 317-416).
T2 sequence: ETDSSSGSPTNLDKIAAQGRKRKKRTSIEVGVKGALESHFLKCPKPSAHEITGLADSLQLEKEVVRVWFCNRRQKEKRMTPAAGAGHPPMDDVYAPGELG
The gist of the method: as §1

Chain of Pax6 DNA-binding domain (BD-Pax6) (P63015 190-289): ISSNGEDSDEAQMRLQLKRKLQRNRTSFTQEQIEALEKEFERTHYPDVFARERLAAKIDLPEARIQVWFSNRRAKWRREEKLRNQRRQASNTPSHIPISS

B1: 99 (dsDNA)
DNA 1: GGGGGATATAACAAGATAATCATTGTTTTGAATATTCCAAGGATTTCCCCC
DNA 2: GGGGGAAATCCTTGGAATATTCAAAACAATGATTATCTTGTTATATCCCCC
For the molecule B1, the binding result in series [1], in series [2] and in series [3] was “binds” throughout.

B2: 98 (dsDNA)
DNA 1: GGGGGTTATGAATACAATTCATTATAACCATGGATCCCCC
DNA 2: GGGGGATCCATGGTTATAATGAATTGTATTCATAACCCCC
With B2, the binding result in series [1] was “binds”; in series [2], “no binding”; in series [3], “binds”.

B3: 95 (dsDNA)
DNA 1: GGGGGGGTTTTCTTTTGTACACTTAATATCCGCTGGGGCCCCC
DNA 2: GGGGGCCCCAGCGGATATTAAGTGTACAAAAGAAAACCCCCCC
For B3, the binding result in series [1] is on record as “no binding”; in series [2], “binds”; in series [3], “binds”.

B4: 96 (dsDNA)
DNA 1: GGGGGACATAGACACAAATAGCAGACAATGACCTTGACCCCC
DNA 2: GGGGGTCAAGGTCATTGTCTGCTATTTGTGTCTATGTCCCCC
B4: the binding result in series [1], in series [2] and in series [3] was “no binding” throughout.

B5: 94 (dsDNA)
DNA 1: GGGGGATCTGTAAAGGAAATTACTTTGTAGGAAATTTGATGGAACTGCCCCC
DNA 2: GGGGGCAGTTCCATCAAATTTCCTACAAAGTAATTTCCTTTACAGATCCCCC
Turning to B5, the binding result in series [1], in series [2] and in series [3] was “binds” each time.

B6: 97 (dsDNA)
DNA 1: GGGGGTAGATGCTACAAAAGATACTGATTAAAACCCAAATGCCCCC
DNA 2: GGGGGCATTTGGGTTTTAATCAGTATCTTTTGTAGCATCTACCCCC
As for B6, the binding result in series [1], in series [2] and in series [3] was “binds” throughout.
